{
  "source": "the supplement of paper PMC10567573",
  "parents": {"B1": {"name": "KRT18 (parent)", "chain": "PQVRDWSHYFKIIEDLRAQIFANT"}},
  "data": [
    {"variants_of": "B1", "experiment": "protein stability index of a GFP-peptide fusion (GPS, HEK-293T) (PSI 1-6); higher = more stable", "details": "c terminus: a fixed tail appended", "values": [
      {"variant": "PQVRDWSHYFKIIEDLAAQIFANT", "note": "[R17A]", "protein stability index": 2.14},
      {"variant": "PQVRDWSHYFKIIEDLVAQIFANT", "note": "[R17V]", "protein stability index": 1.89},
      {"variant": "PQVRDWSHYFKIIEDLYAQIFANT", "note": "[R17Y]", "protein stability index": 1.51},
      {"variant": "PQVRDWSHYFKIIEDLEAQIFANT", "note": "[R17E]", "protein stability index": 2.61},
      {"variant": "PQVRDWSHYFKIIEDLGAQIFANT", "note": "[R17G]", "protein stability index": 2.3},
      {"variant": "PQVRDWSHYFKIIEDLDAQIFANT", "note": "[R17D]", "protein stability index": 2.4},
      {"variant": "PQVRDWSHYFKIIEDLQAQIFANT", "note": "[R17Q]", "protein stability index": 2.19},
      {"variant": "PQVRDWSHYFKIIEDLHAQIFANT", "note": "[R17H]", "protein stability index": 2.58},
      {"variant": "PQVRDWSHYFKIIEDLLAQIFANT", "note": "[R17L]", "protein stability index": 1.96},
      {"variant": "PQVRDWSHYFKIIEDLKAQIFANT", "note": "[R17K]", "protein stability index": 3.07},
      {"variant": "PQVRDWSHYFKIIEDLWAQIFANT", "note": "[R17W]", "protein stability index": 1.97},
      {"variant": "PQVRDWSHYFKIIEDLPAQIFANT", "note": "[R17P]", "protein stability index": 2.15},
      {"variant": "PQVRDWSHYFKIIEDLCAQIFANT", "note": "[R17C]", "protein stability index": 1.62},
      {"variant": "PQVRDWSHYFKIIEDLFAQIFANT", "note": "[R17F]", "protein stability index": 1.54},
      {"variant": "PQVRDWSHYFKIIEDLNAQIFANT", "note": "[R17N]", "protein stability index": 2.64},
      {"variant": "PQVRDWSHYFKIIEDLTAQIFANT", "note": "[R17T]", "protein stability index": 2.27},
      {"variant": "PQVRDWSHYFKIIEDLSAQIFANT", "note": "[R17S]", "protein stability index": 2.02},
      {"variant": "PQVRDWSHYFKIIEDLMAQIFANT", "note": "[R17M]", "protein stability index": 2.12},
      {"variant": "PQVRDWSHYFKIIEDLIAQIFANT", "note": "[R17I]", "protein stability index": 2.61},
      {"variant": "PQVRDWSHYFKIIEDLRAQSFANT", "note": "[I20S]", "protein stability index": 2.17},
      {"variant": "PQVRDWSHYFKIIEDLRAQFFANT", "note": "[I20F]", "protein stability index": 2.22},
      {"variant": "PQVRDWSHYFKIIEDLRAQLFANT", "note": "[I20L]", "protein stability index": 2},
      {"variant": "PQVRDWSHYFKIIEDLRAQQFANT", "note": "[I20Q]", "protein stability index": 2.09},
      {"variant": "PQVRDWSHYFKIIEDLRAQNFANT", "note": "[I20N]", "protein stability index": 3.05},
      {"variant": "PQVRDWSHYFKIIEDLRAQEFANT", "note": "[I20E]", "protein stability index": 2.86},
      {"variant": "PQVRDWSHYFKIIEDLRAQTFANT", "note": "[I20T]", "protein stability index": 2.83},
      {"variant": "PQVRDWSHYFKIIEDLRAQGFANT", "note": "[I20G]", "protein stability index": 2.9},
      {"variant": "PQVRDWSHYFKIIEDLRAQMFANT", "note": "[I20M]", "protein stability index": 2.15},
      {"variant": "PQVRDWSHYFKIIEDLRAQKFANT", "note": "[I20K]", "protein stability index": 2.7},
      {"variant": "PQVRDWSHYFKIIEDLRAQVFANT", "note": "[I20V]", "protein stability index": 2.08},
      {"variant": "PQVRDWSHYFKIIEDLRAQAFANT", "note": "[I20A]", "protein stability index": 2.07},
      {"variant": "PQVRDWSHYFKIIEDLRAQHFANT", "note": "[I20H]", "protein stability index": 1.89},
      {"variant": "PQVRDWSHYFKIIEDLRAQWFANT", "note": "[I20W]", "protein stability index": 1.62},
      {"variant": "PQVRDWSHYFKIIEDLRAQYFANT", "note": "[I20Y]", "protein stability index": 2.16},
      {"variant": "PQVRDWSHYFKIIEDLRAQDFANT", "note": "[I20D]", "protein stability index": 2.59},
      {"variant": "PQVRDWSHYFKIIEDLRAQCFANT", "note": "[I20C]", "protein stability index": 1.86},
      {"variant": "PQVRDWSHYFKIIEDLRAQRFANT", "note": "[I20R]", "protein stability index": 2.75},
      {"variant": "PQVRDWSHYFKIIEDLRAQPFANT", "note": "[I20P]", "protein stability index": 1.91},
      {"variant": "PQVRDWSHYFKIIEDLRAQIQANT", "note": "[F21Q]", "protein stability index": 2.46},
      {"variant": "PQVRDWSHYFKIIEDLRAQIHANT", "note": "[F21H]", "protein stability index": 2.4},
      {"variant": "PQVRDWSHYFKIIEDLRAQILANT", "note": "[F21L]", "protein stability index": 2.7},
      {"variant": "PQVRDWSHYFKIIEDLRAQIRANT", "note": "[F21R]", "protein stability index": 2.33},
      {"variant": "PQVRDWSHYFKIIEDLRAQINANT", "note": "[F21N]", "protein stability index": 2.46},
      {"variant": "PQVRDWSHYFKIIEDLRAQITANT", "note": "[F21T]", "protein stability index": 1.97},
      {"variant": "PQVRDWSHYFKIIEDLRAQIPANT", "note": "[F21P]", "protein stability index": 2.15},
      {"variant": "PQVRDWSHYFKIIEDLRAQIVANT", "note": "[F21V]", "protein stability index": 2.39},
      {"variant": "PQVRDWSHYFKIIEDLRAQIGANT", "note": "[F21G]", "protein stability index": 2.52},
      {"variant": "PQVRDWSHYFKIIEDLRAQISANT", "note": "[F21S]", "protein stability index": 2.32},
      {"variant": "PQVRDWSHYFKIIEDLRAQIMANT", "note": "[F21M]", "protein stability index": 2.16},
      {"variant": "PQVRDWSHYFKIIEDLRAQIEANT", "note": "[F21E]", "protein stability index": 2.98},
      {"variant": "PQVRDWSHYFKIIEDLRAQIWANT", "note": "[F21W]", "protein stability index": 1.84},
      {"variant": "PQVRDWSHYFKIIEDLRAQIAANT", "note": "[F21A]", "protein stability index": 2.83},
      {"variant": "PQVRDWSHYFKIIEDLRAQIDANT", "note": "[F21D]", "protein stability index": 3.27},
      {"variant": "PQVRDWSHYFKIIEDLRAQIYANT", "note": "[F21Y]", "protein stability index": 3.6},
      {"variant": "PQVRDWSHYFKIIEDLRAQICANT", "note": "[F21C]", "protein stability index": 1.97},
      {"variant": "PQVRDWSHYFKIIEDLRAQIIANT", "note": "[F21I]", "protein stability index": 1.91},
      {"variant": "PQVRDWSHYFKIIEDLRAQIKANT", "note": "[F21K]", "protein stability index": 2.98},
      {"variant": "PQVRDWSHYFKIIEDLRAVIFANT", "note": "[Q19V]", "protein stability index": 1.59},
      {"variant": "PQVRDWSHYFKIIEDLRAIIFANT", "note": "[Q19I]", "protein stability index": 1.42},
      {"variant": "PQVRDWSHYFKIIEDLRACIFANT", "note": "[Q19C]", "protein stability index": 1.86},
      {"variant": "PQVRDWSHYFKIIEDLRATIFANT", "note": "[Q19T]", "protein stability index": 2.8},
      {"variant": "PQVRDWSHYFKIIEDLRAWIFANT", "note": "[Q19W]", "protein stability index": 2.39},
      {"variant": "PQVRDWSHYFKIIEDLRAKIFANT", "note": "[Q19K]", "protein stability index": 2.12},
      {"variant": "PQVRDWSHYFKIIEDLRAAIFANT", "note": "[Q19A]", "protein stability index": 2.05},
      {"variant": "PQVRDWSHYFKIIEDLRAEIFANT", "note": "[Q19E]", "protein stability index": 2.62},
      {"variant": "PQVRDWSHYFKIIEDLRASIFANT", "note": "[Q19S]", "protein stability index": 2.67},
      {"variant": "PQVRDWSHYFKIIEDLRARIFANT", "note": "[Q19R]", "protein stability index": 2.45},
      {"variant": "PQVRDWSHYFKIIEDLRAHIFANT", "note": "[Q19H]", "protein stability index": 2.09},
      {"variant": "PQVRDWSHYFKIIEDLRAFIFANT", "note": "[Q19F]", "protein stability index": 1.7},
      {"variant": "PQVRDWSHYFKIIEDLRAPIFANT", "note": "[Q19P]", "protein stability index": 1.97},
      {"variant": "PQVRDWSHYFKIIEDLRALIFANT", "note": "[Q19L]", "protein stability index": 1.79},
      {"variant": "PQVRDWSHYFKIIEDLRAYIFANT", "note": "[Q19Y]", "protein stability index": 1.65},
      {"variant": "PQVRDWSHYFKIIEDLRAGIFANT", "note": "[Q19G]", "protein stability index": 2.34},
      {"variant": "PQVRDWSHYFKIIEDLRAMIFANT", "note": "[Q19M]", "protein stability index": 1.89},
      {"variant": "PQVRDWSHYFKIIEDLRANIFANT", "note": "[Q19N]", "protein stability index": 2.56},
      {"variant": "PQVRDWSHYFKIIEDLRADIFANT", "note": "[Q19D]", "protein stability index": 2.49},
      {"variant": "PQVRDWSHYFKIIVDLRAQIFANT", "note": "[E14V]", "protein stability index": 2.11},
      {"variant": "PQVRDWSHYFKIIHDLRAQIFANT", "note": "[E14H]", "protein stability index": 2.69},
      {"variant": "PQVRDWSHYFKIIRDLRAQIFANT", "note": "[E14R]", "protein stability index": 2.27},
      {"variant": "PQVRDWSHYFKIIPDLRAQIFANT", "note": "[E14P]", "protein stability index": 1.67},
      {"variant": "PQVRDWSHYFKIIMDLRAQIFANT", "note": "[E14M]", "protein stability index": 2.32},
      {"variant": "PQVRDWSHYFKIIYDLRAQIFANT", "note": "[E14Y]", "protein stability index": 1.9},
      {"variant": "PQVRDWSHYFKIIIDLRAQIFANT", "note": "[E14I]", "protein stability index": 2.46},
      {"variant": "PQVRDWSHYFKIISDLRAQIFANT", "note": "[E14S]", "protein stability index": 2.26},
      {"variant": "PQVRDWSHYFKIIGDLRAQIFANT", "note": "[E14G]", "protein stability index": 2},
      {"variant": "PQVRDWSHYFKIITDLRAQIFANT", "note": "[E14T]", "protein stability index": 2},
      {"variant": "PQVRDWSHYFKIIDDLRAQIFANT", "note": "[E14D]", "protein stability index": 2.28},
      {"variant": "PQVRDWSHYFKIIWDLRAQIFANT", "note": "[E14W]", "protein stability index": 2.79},
      {"variant": "PQVRDWSHYFKIILDLRAQIFANT", "note": "[E14L]", "protein stability index": 1.39},
      {"variant": "PQVRDWSHYFKIINDLRAQIFANT", "note": "[E14N]", "protein stability index": 2.03},
      {"variant": "PQVRDWSHYFKIIKDLRAQIFANT", "note": "[E14K]", "protein stability index": 2.77},
      {"variant": "PQVRDWSHYFKIIQDLRAQIFANT", "note": "[E14Q]", "protein stability index": 2.64},
      {"variant": "PQVRDWSHYFKIICDLRAQIFANT", "note": "[E14C]", "protein stability index": 2.33},
      {"variant": "PQVRDWSHYFKIIADLRAQIFANT", "note": "[E14A]", "protein stability index": 2}
    ]}
  ]
}
